Common to all, as to assay type: cell-based, human
One experiment relates to Akt, eNOS and 42/44. In words: Phosphorylation of Tie2 downstream signaling proteins in HUVEC (immunoblot). The note with it: 60 nM 10D6 + 40 nM Ang2, or Ang1 4 nM alone, 30 min. The protocol:
To see whether antibody 10D6 induces the activation of the downstream signaling of a Tie2 receptor as well as the activation of the Tie2 receptor itself, the phosphorylation degrees of proteins participating in the downstream signaling when Ang2 alone or Ang2 and antibody 10D6 was treated were tested using immune blotting.
Specifically, HUVEC (ATCC) cells (1×10^6) were cultured in a 6-well culture dish using EGM-2 (Lonza) media at 37° C. and when they reached 80˜90% confluency, the media were replaced with serum-free media (Lonza) and cultured at 37° C. for 6 to 16 hours. The dish was washed once with PBS, and the cultured cells were treated with a mixture prepared by mixing 60 nM of the Ang2 antibody (10D6) with 40 nM of Ang2 protein (R&D systems) and letting them stand for 20 min. and further cultured for 30 min. For comparison, groups in which Ang1 (R&D systems) 4 nM, Ang2 (R&D systems) 40 nM, and Ang2 (R&D systems) 40 nM+anti-Ang2 antibody (Regeneron) 60 nM were treated respectively were prepared.
The cells were washed using PBS, treated with a lysis buffer (Roche), collected to a tube to be dissolved at 4° C. for 30 min. and then, centrifuged at 13,000 rpm for 15 min. to measure a supernatant. A sample buffer (Invitrogen) mixed with a reducing agent was added to 25 ug of a cell lysate, which was boiled at 95° C. for 5 min., and then, applied to NuPAGE Novex 4-12% Bis-Tris gel (Invitrogen) and transferred onto Nitrocellulose membrane (Invitrogen).
To see the presence of the phosphorylation of Akt, eNOS and 42/44 involved in the downstream signaling, the blots were blocked with PBST mixed with 3% (v/v) skim milk (Sigma) for 30 min. and then treated with an anti pAkt antibody, anti p-eNOS antibody, and anti p-42/44 antibody (all of them; cell signaling). The blots were reacted in a stripping buffer (Thermo) for 15 min. and then blocked again to identify Akt, eNOS, and 42/44 using an anti Akt antibody, anti eNOS antibody, and anti 42/44 antibody (all of them; cell signaling).
On the technique in general: A western blot detects proteins with antibodies after separation by electrophoresis.

The next experiment relates to HUVEC monolayer. In words: In vitro vascular permeability assay (FITC-dextran). The note with it: 200 ng/ml Ang1 alone or 200 ng/ml Ang2 + 1 ug/ml 10D6. The protocol:
To see the cell permeability suppression effects of antibody 10D6, in vitro vascular permeability assay kit (Millipore) was employed. HUVEC (ATCC) cells (5×10^4) were added to a collagen-coated transwell and cultured for 2 days to prepare a confluent monolayer. It was treated with 200 ng/ml of Ang2 or 200 ng/ml of Ang1 (R&D systems) alone, or 200 ng/ml of Ang2 and 1 ug/ml of antibody 10D6, pre-incubated for 30 min. and then, treated with 100 ng/ml of LPS (Lipopolysaccharide; Sigma) or 100 ng/ml TNF-a (R&D systems) to induce the permeability of HUVEC monolayer. LPS or TNF-a weakens binding between HUVEC cells to form a gap therebetween, thereby increasing the migration of materials in the HUVEC monolayer. After 6-hour incubation for the LPS treatment group and 22-hour incubation for the TNF-a group, the upper chamber was treated with FITC-dextran (Millipore) and incubated for 18 min. The fluorescence of FITC-dextran migrated to the lower chamber was measured at 485/535 nm (Ex/Em) setting using an Envision 2104 multilabel Reader (Perkinelmer).

The test system of the next experiment is ICAM-1. In words: LPS-induced mRNA expression of ICAM-1 in HUVEC (qPCR). The note with it: 100 ng/ml LPS 5 hours, 0.2 ug/ml Ang1 or 0.1 ug/ml Ang2 + 0.5 ug/ml antibody. Here is the method: (§1) To see anti-inflammatory effects by antibody 10D6, HUVEC (ATCC) cells (4×10^5) were treated with Ang2 alone or Ang2 together with antibody 10D6, and a group in which Ang1 and Ang2 (R&D systems) and Regeneron Co. antibody (RG antibody) were co-treated was included as a control group. HUVEC cells were treated with 0.2 ug/ml of Ang1, 0.1 ug/ml of Ang2, or 0.1 ug/ml of Ang2 and 0.5 ug/ml of antibody, respectively and after 30-min. pre-incubation, they were treated with 100 ng/ml of LPS (Sigma) to induce inflammatory response and incubated for 5 hours.
(§2) The degree of the inflammatory response was identified by measuring the mRNA expression degree of an inflammatory adhesion substance (ICAM-1, E-selectin). The cells were washed using PBS, RNA was extracted using RNeasy Mini kit (Qiagen), and among them, 2 ug of RNA was synthesized into cDNA using Transcriptor First Strand cDNA synthesis kit (Roche). qPCR reaction was performed using RT2 SYBR™ Green Mastermix (Qiagen) and LightCycler™ 480 Real-Time PCR System (Roche). As an internal control for calibrating the amount of RNA in a sample, HPRT1 was used, and qPCR complied with the following procedures with regard to all the primers.
(§3) Step 1: 95° C., 10 min; Step 2 (45 cycles): Step 2-1: 95° C., 15 sec; Step 2-2: 60° C., 1 min; Step 3: 65° C., 15 sec; Step 4: 95° C., continuous (every 20° C.); Step 6: 40° C., 10 sec.
In general terms: Real-time PCR tracks product formation cycle by cycle.

The subject of the next experiment is E-selectin. In words: LPS-induced mRNA expression of E-selectin in HUVEC (qPCR). The conditions noted are these: 100 ng/ml LPS 5 hours, 0.2 ug/ml Ang1 or 0.1 ug/ml Ang2 + 0.5 ug/ml antibody. Here is the method:
as §1, §2, §3

In experiment [1] the test system is HL-60 cells adhered to HUVEC cells. The experiment can be described thus: Binding between inflammatory cells HL-60 and HUVEC induced by TNF-a. The note with it: 1 ng/ml TNF-a; 0.2 ug/ml Ang1 or 0.1 ug/ml Ang2 + 0.5 ug/ml 10D6. The protocol:
Meanwhile, if the expression of inflammatory adhesion substances (ICAM-1, E-selectin, etc.) of vascular endothelial cells is increased, binding between the inflammatory cells and the vascular endothelial cells are accelerated and inflammatory response is thus induced. To confirm this, an experiment for measuring binding between inflammatory cells HL-60 (ATCC) and HUVEC was conducted.
HUVEC cells (4×10^5) were cultured in a 24-mutiwell plate and treated with 0.1 ug/ml of Ang2 alone or 0.1 ug/ml of Ang2 together with 0.5 ug/ml of antibody 10D6, and a group in which 0.2 ug/ml of Ang1, and 0.1 ug/ml of Ang2 (R&D systems) and 0.5 ug/ml of Regeneron Co. antibody (RG antibody) were co-treated was included as a control group. As above, the HUVEC cells were treated with Angiopoietin and antibody and after 30-min. pre-incubation, they were treated with 1 ng/ml of TNF-a (eBioscience) to induce inflammatory response and incubated for 2 hours and 30 min.
After the HUVEC cells were washed with complete media (Lonza), HL-60 cells dyed with Calcein-AM (BD bioscience) solution were added at the amount of 2.5×10^5 cells to each well and incubated for 1 hour. […] The obtained lysate was transported to a 96-well plate, and fluorescence strengths derived from the HL-60 cells were measured at 485/535 nm (Ex/Em) setting using an Envision 2104 multilabel Reader (Perkin Elmer).

B1: Ang1: Angiopoietin-1 protein (R&D systems), ligand which activates the Tie2 receptor (protein, UniProt Q15389 16-498, looked up)
Angiopoietin-1: HIGCSNQRRSPENSGRRYNRIQHGQCAYTFILPEHDGNCRESTTDQYNTNALQRDAPHVEPDFSSQKLQHLEHVMENYTQWLQKLENYIVENMKSEMAQIQQNAVQNHTATMLEIGTSLLSQTAEQTRKLTDVETQVLNQTSRLEIQLLENSLSTYKLEKQLLQQTNEILKIHEKNSLLEHKILEMEGKHKEELDTLKEEKENLQGLVTRQTYIIQELEKQLNRATTNNSVLQKQQLELMDTVHNLVNLCTKEGVLLKGGKREEEKPFRDCADVYQAGFNKSGIYTIYINNMPEPKKVFCNMDVNGGGWTVIQHREDGSLDFQRGWKEYKMGFGNPSGEYWLGNEFIFAITSQRQYMLRIELMDWEGNRAYSQYDRFHIGNEKQNYRLYLKGHTGTAGKQSSLILHGADFSTKDADNDNCMCKCALMLTGGWWFDACGPSNLNGMFYTAGQNHGKLNGIKWHYFKGPSYSLRSTTMMIRPLDF
Regarding B1, in the experiment on Akt, eNOS and 42/44, the “downstream signaling (phosphorylation of Akt, eNOS, 42/44) compared to Ang2 sole-treatment and Ang2 + RG antibody” value is reported as “strongly induced”. Besides, the “vascular permeability increased by LPS” value in the experiment with HUVEC monolayer (100 ng/ml LPS, 6 hour) is “decreased to the control level”. Further, in the experiment with HUVEC monolayer (100 ng/ml TNF-a, 22 hour), the “vascular permeability increased by TNF-a” value is on record as “decreased to the control level”. The “expression of ICAM-1 induced by LPS” value in the experiment with ICAM-1 was “remarkably suppressed”. In addition, the “expression of E-selectin induced by LPS” value in the experiment with E-selectin is “remarkably suppressed”. Further, in experiment [1], the “binding between HUVEC cells and HL-60 cells induced by TNF-a” value is listed as “remarkably suppressed”.

The values above are taken from patent publication US9505841B2, “Use of an anti-Ang2 antibody” (Samsung Electronics Co., Ltd., priority 2013, dated 2016).
